B1: GLP2G-PU141x47 (ligand)
chain: HGDGSFSDEMNTILDNLAARDFINWLIQTKITDAPAAPPEEAAAEPPAAEAAPAPAAPPEEAAAEPPAAEAAPAPAAPPEEAAAEPPAAEAAPAPAAPPEEAAAEPPAAEAAPAPAAPPEEAAAEPPAAEAAPAPAAPPEEAAAEPPAAEAAPAPAAPPEEAAAEPPAAEAAPAPAAPPEEAAAEPPAAEAAPAPAAPPEEAAAEPPAAEAAPAPAAPPEEAAAEPPAAEAAPAPAAPPEEAAAEPPAAEAAPAPAAPPEEAAAEPPAAEAAPAPAAPPEEAAAEPPAAEAAPAPAAPPEEAAAEPPAAEAAPAPAAPPEEAAAEPPAAEAAPAPAAPPEEAAAEPPAAEAAPAPAAPPEEAAAEPPAAEAAPAPAAPPEEAAAEPPAAEAAPAPAAPPEEAAAEPPAAEAAPAPAAPPEEAAAEPPAAEAAPAPAAPPEEAAAEPPAAEAAPAPAAPPEEAAAEPPAAEAAPAPAAPPEEAAAEPPAAEAAPAPAAPPEEAAAEPPAAEAAPAPAAPPEEAAAEPPAAEAAPAPAAPPEEAAAEPPAAEAAPAPAAPPEEAAAEPPAAEAAPAPAAPPEEAAAEPPAAEAAPAPAAPPEEAAAEPPAAEAAPAPAAPPEEAAAEPPAAEAAPAPAAPPEEAAAEPPAAEAAPAPAAPPEEAAAEPPAAEAAPAPAAPPEEAAAEPPAAEAAPAPAAPPEEAAAEPPAAEAAPAPAAPPEEAAAEPPAAEAAPAPAAPPEEAAAEPPAAEAAPAPAAPPEEAAAEPPAAEAAPAPAAPPEEAAAEPPAAEAAPAPAAPPEEAAAEPPAAEAAPAPAAPPEEAAAEPPAAEAAPAPAAPPEEAAAEPPAAEAAPAPAAPPEEAAAEPPAAEAAPAPAAPPEEAAAEPPAAEAAPAPAAPPEEAAAEPPAAEAAPAPAAPPEEAAAEPPAAEAAPAPAAPPEEAAAEPPAAEAAPAPAAPPEEAAAEPPAAEAAP
B2: GLP2G-PU69x45 (ligand)
chain: HGDGSFSDEMNTILDNLAARDFINWLIQTKITDAPPEAPEAPEAAPAAPEPAEAPPEAPEAPEAAPAAPEPAEAPPEAPEAPEAAPAAPEPAEAPPEAPEAPEAAPAAPEPAEAPPEAPEAPEAAPAAPEPAEAPPEAPEAPEAAPAAPEPAEAPPEAPEAPEAAPAAPEPAEAPPEAPEAPEAAPAAPEPAEAPPEAPEAPEAAPAAPEPAEAPPEAPEAPEAAPAAPEPAEAPPEAPEAPEAAPAAPEPAEAPPEAPEAPEAAPAAPEPAEAPPEAPEAPEAAPAAPEPAEAPPEAPEAPEAAPAAPEPAEAPPEAPEAPEAAPAAPEPAEAPPEAPEAPEAAPAAPEPAEAPPEAPEAPEAAPAAPEPAEAPPEAPEAPEAAPAAPEPAEAPPEAPEAPEAAPAAPEPAEAPPEAPEAPEAAPAAPEPAEAPPEAPEAPEAAPAAPEPAEAPPEAPEAPEAAPAAPEPAEAPPEAPEAPEAAPAAPEPAEAPPEAPEAPEAAPAAPEPAEAPPEAPEAPEAAPAAPEPAEAPPEAPEAPEAAPAAPEPAEAPPEAPEAPEAAPAAPEPAEAPPEAPEAPEAAPAAPEPAEAPPEAPEAPEAAPAAPEPAEAPPEAPEAPEAAPAAPEPAEAPPEAPEAPEAAPAAPEPAEAPPEAPEAPEAAPAAPEPAEAPPEAPEAPEAAPAAPEPAEAPPEAPEAPEAAPAAPEPAEAPPEAPEAPEAAPAAPEPAEAPPEAPEAPEAAPAAPEPAEAPPEAPEAPEAAPAAPEPAEAPPEAPEAPEAAPAAPEPAEAPPEAPEAPEAAPAAPEPAEAPPEAPEAPEAAPAAPEPAEAPPEAPEAPEAAPAAPEPAEAPPEAPEAPEAAPAAPEPAEAPPEAPEAPEAAPAAPEPAEAPPEAPEAPEAAPAAPEPAEAPPEAPEAPEAAPAAPEPAE
B3: GLP2G-PU98x43 (ligand)
chain: HGDGSFSDEMNTILDNLAARDFINWLIQTKITDAEPAAPAPAEPAAPAPEAPAAEPAAPAPAEPAAPAPEAPAAEPAAPAPAEPAAPAPEAPAAEPAAPAPAEPAAPAPEAPAAEPAAPAPAEPAAPAPEAPAAEPAAPAPAEPAAPAPEAPAAEPAAPAPAEPAAPAPEAPAAEPAAPAPAEPAAPAPEAPAAEPAAPAPAEPAAPAPEAPAAEPAAPAPAEPAAPAPEAPAAEPAAPAPAEPAAPAPEAPAAEPAAPAPAEPAAPAPEAPAAEPAAPAPAEPAAPAPEAPAAEPAAPAPAEPAAPAPEAPAAEPAAPAPAEPAAPAPEAPAAEPAAPAPAEPAAPAPEAPAAEPAAPAPAEPAAPAPEAPAAEPAAPAPAEPAAPAPEAPAAEPAAPAPAEPAAPAPEAPAAEPAAPAPAEPAAPAPEAPAAEPAAPAPAEPAAPAPEAPAAEPAAPAPAEPAAPAPEAPAAEPAAPAPAEPAAPAPEAPAAEPAAPAPAEPAAPAPEAPAAEPAAPAPAEPAAPAPEAPAAEPAAPAPAEPAAPAPEAPAAEPAAPAPAEPAAPAPEAPAAEPAAPAPAEPAAPAPEAPAAEPAAPAPAEPAAPAPEAPAAEPAAPAPAEPAAPAPEAPAAEPAAPAPAEPAAPAPEAPAAEPAAPAPAEPAAPAPEAPAAEPAAPAPAEPAAPAPEAPAAEPAAPAPAEPAAPAPEAPAAEPAAPAPAEPAAPAPEAPAAEPAAPAPAEPAAPAPEAPAAEPAAPAPAEPAAPAPEAPAAEPAAPAPAEPAAPAPEAPAAEPAAPAPAEPAAPAPEAPAAEPAAPAPAEPAAPAPEAPAAEPAAPAPAEPAAPAPEAPAAEPAAPAPAEPAAPAPEAPAAEPAAPAPAEPAAPAPEAPA
B4: PU73x49-ARVEGF (designed binder)
chain: APAEAPAAAEEAPPAEPAPEAPAEAPAAAEEAPPAEPAPEAPAEAPAAAEEAPPAEPAPEAPAEAPAAAEEAPPAEPAPEAPAEAPAAAEEAPPAEPAPEAPAEAPAAAEEAPPAEPAPEAPAEAPAAAEEAPPAEPAPEAPAEAPAAAEEAPPAEPAPEAPAEAPAAAEEAPPAEPAPEAPAEAPAAAEEAPPAEPAPEAPAEAPAAAEEAPPAEPAPEAPAEAPAAAEEAPPAEPAPEAPAEAPAAAEEAPPAEPAPEAPAEAPAAAEEAPPAEPAPEAPAEAPAAAEEAPPAEPAPEAPAEAPAAAEEAPPAEPAPEAPAEAPAAAEEAPPAEPAPEAPAEAPAAAEEAPPAEPAPEAPAEAPAAAEEAPPAEPAPEAPAEAPAAAEEAPPAEPAPEAPAEAPAAAEEAPPAEPAPEAPAEAPAAAEEAPPAEPAPEAPAEAPAAAEEAPPAEPAPEAPAEAPAAAEEAPPAEPAPEAPAEAPAAAEEAPPAEPAPEAPAEAPAAAEEAPPAEPAPEAPAEAPAAAEEAPPAEPAPEAPAEAPAAAEEAPPAEPAPEAPAEAPAAAEEAPPAEPAPEAPAEAPAAAEEAPPAEPAPEAPAEAPAAAEEAPPAEPAPEAPAEAPAAAEEAPPAEPAPEAPAEAPAAAEEAPPAEPAPEAPAEAPAAAEEAPPAEPAPEAPAEAPAAAEEAPPAEPAPEAPAEAPAAAEEAPPAEPAPEAPAEAPAAAEEAPPAEPAPEAPAEAPAAAEEAPPAEPAPEAPAEAPAAAEEAPPAEPAPEAPAEAPAAAEEAPPAEPAPEAPAEAPAAAEEAPPAEPAPEAPAEAPAAAEEAPPAEPAPEAPAEAPAAAEEAPPAEPAPEAPAEAPAAAEEAPPAEPAPEAPAEAPAAAEEAPPAEPAPEAPAEAPAAAEEAPPAEPAPEAPAEAPAAAEEAPPAEPAPEAPAEAPAAAEEAPPAEPAPEAPAEAPAAAEEAPPAEPAPEGSDLDKKLLEAARAGQDDEVRILMANGADVNARDSTGWTPLHLAAPWGHPEIVEVLLKNGADVNAADFQGWTPLHLAAAVGHLEIVEVLLKYGADVNAQDKFGKTAFDISIDNGNEDLAEILQKAA
notes: also called PU-ARVEGF fusion protein
B5: ankyrin repeat protein binding to VEGF (ARVEGF) (designed binder)
chain: GSDLDKKLLEAARAGQDDEVRILMANGADVNARDSTGWTPLHLAAPWGHPEIVEVLLKNGADVNAADFQGWTPLHLAAAVGHLEIVEVLLKYGADVNAQDKFGKTAFDISIDNGNEDLAEILQKAA
notes: Its preparation and any tag are not described

Columns and labels:
[1] = biological target: GLP-2R (GLP-2 receptor) on GLP-2R/Luc-CHO cells; experiment: cell-based or functional assay
[2] = biological target: T1, VEGF (UniProt P15692-4 27-191, limits assumed, biotin-labelled (Sulfo-NHS biotin, molar ratio 2:1) in the BLI assay; unlabelled in the competition ELISA); experiment: competition ELISA: sample pre-mixed with VEGF, mixture put on a plate coated with VEGF Receptor 2 (KDR), bound VEGF detected with mouse anti-human VEGF antibody, OD450; blocked ligand-receptor pair VEGF/KDR
T1 construct: also called biotin-labeled VEGF
T1 sequence (P15692 other isoform, or with tags, fused parts or gaps limits assumed): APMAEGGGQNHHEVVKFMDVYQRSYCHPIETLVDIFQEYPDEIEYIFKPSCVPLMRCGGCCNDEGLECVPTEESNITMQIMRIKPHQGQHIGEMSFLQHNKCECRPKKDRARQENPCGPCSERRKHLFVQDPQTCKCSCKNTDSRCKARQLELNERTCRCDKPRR
Experimental: (§1) The plate was then blocked with 1% BSA/TBS and placed at 37° C. for 1 h; 1% BSA/TBS was added to the plate, 200 μL per well, and placed at 37° C. for 2 h.
(§2) Then, the stock solutions were diluted by 3 times to a total of 11 concentrations. […] The KDR-coated ELISA plate was washed twice and pat-dried. The mixture was successively transferred to the ELISA plate and placed at 37° C. for 1 h, then the plate was washed for 6 times. […] The plate was placed at 37° C. for 1 h and washed for 6 times. Then, goat anti-rat secondary antibody (Pierce, 31432, QA1969921) diluted at 1:1000 was added, 50 μL per well. The plate was placed at 37° C. for 1 h and washed for 6 times. Color developing solution was added after reaction, and the plated was incubated at 37° C. for 15 min. Stop buffer was added to terminate the color reaction. OD450 values were read on a microplate reader.

[3] = biological target: T1, VEGF; experiment: BLI (Octet-QK), biotin-VEGF on SA probe; average of 3 repeats (STD 0.05)
Text: (§3) The binding affinities of the fusion proteins were detected using BLI (Bio-layer inteferometry, ForteBio). […] Excess biotin not involved in labeling was removed by dialysis. […] The buffer used in the experiment was PBS (containing 0.1% Tween-20). […] Based on the program settings, the fusion proteins were bound, and then dissociated in PBST solution, to obtain the experimental curves. According to the result analysis software of Octet-QK, local full was used to fit the curves of the experimental results, then kon, kdis and Kd were determined.

[4] = biological target: T1, VEGF; experiment: BLI (Octet-QK), biotin-VEGF on SA probe; repeat 2
Text: as §3

[5] = biological target: T1, VEGF; experiment: competition ELISA: inhibition of VEGF binding to plate-coated VEGF Receptor 2 (KDR)
Experimental: as §1, §2

[6] = biological target: T1, VEGF; experiment: BLI (Octet-QK), biotin-VEGF on SA probe; repeat 1
Text: as §3

[7] = biological target: T1, VEGF; experiment: BLI (Octet-QK), biotin-VEGF on SA probe; repeat 3
Text: as §3

[8] = biological target: T1, VEGF; experiment: BLI (Octet-QK), biotin-VEGF on SA probe; average of 3 repeats (STD 0.10)
Text: as §3

Binder	in vitro cytological activity, EC50 (luciferase reporter, GLP-2R/Luc-CHO cells) [1] [nM]	IC50 (read off the curve) [2] [nM]	Kd [3] [nM]	Kd [4] [nM]	IC50 [5] [nM]	Kd [6] [nM]	Kd [7] [nM]	Kd [8] [nM]
B1	299							
B2	279							
B3	311							
B4		~0.3	0.64	0.61	0.55	0.62	0.7	
B5		~0.3		0.69	0.65	0.58	0.77	0.68
